Assay results as given in the supplement of paper PMC9170038.

Tested on: MS2 coat protein
Assay: apparent KD of MS2 coat protein; designed switch direction (-1 OFF switch, 1 ON switch): -1; higher = weaker reporter binding
Procedure, shortened: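 Apparent KD, taken as the median over clusters for each design, was obtained by curve-fitting normalised cluster fluorescence. Designed RNA switches had been transcribed on Illumina chips by stalled E. coli RNA polymerase and titrated with SNAP-549-labelled MS2 coat protein, doubling from 0.7 or 1.5 nM to 3 µM.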

[1] = Eterna round: R95, input ligand: microRNA oligo, concentration not stated
[2] = input ligand: microRNA oligo, concentration not stated

**Q.** What does the source list for “GCCUACGCAGGAUAUGUCCAGGGAAACAUGAGGAUCACCCAUGUGGAGUGGACUCGGGUUGCAGAAGGGCGGGCAC [Eternabot (Original) Solution 3] (Eterna round: R97, puzzle: Exclusion 5)”?
**A.** apparent KD of MS2 coat protein (input ligand: FMN 200 uM): 21.2 nM; apparent KD of MS2 coat protein (input ligand: none): 16 nM

**Q.** For “GUCCUACAUGAGGAUCACCCAUGUAAGGAUAUGCUAGCGGUCGGAAGACUGACUGCUAGCAGAAGGUACAUGAU [Mat - Mod of JL D79] (puzzle: Exclusion 1)”, which “apparent KD of MS2 coat protein” value [1] is on record?
**A.** 13.9 nM

**Q.** Which results are given for “GGGCAGGGAGGAUAUGUAUCGCACUACAUGAGGAUCACCCAUGUGCCUUUUGUGACGUGGACAGAAGGUCCUGCCG [Eternabot (L1) Solution 17] (Eterna round: R97, puzzle: Exclusion 5)”?
**A.** apparent KD of MS2 coat protein (input ligand: FMN 200 uM): 129 nM; apparent KD of MS2 coat protein (input ligand: none): 193 nM

**Q.** “AAAGAGCGAGGAUAUGCGUGCCGGUGCGGCCAGCCGAUGUGACAUGAGGAUCACCCAUGUAGAAGGCGCAGAAA [Excls2-VIII] (puzzle: Exclusion 2)” was tested. Which “apparent KD of MS2 coat protein” value [1] did it give?
**A.** 12.8 nM

**Q.** For “AUCCGUAGGCGCACCUCACACAUGAGGAUCACCCAUGUGCCCUACAAUCGCAAGCUGUGCUCGUUGCUGGUCCCUAC [Eternabot (L1) Solution 16] (Eterna round: R97, puzzle: Sensor, turn-off variant 1)”, which “apparent KD of MS2 coat protein” value (input ligand: FMN 200 uM) is on record?
**A.** 45.3 nM

**Q.** What about the “apparent KD of MS2 coat protein” value (input ligand: none) of the same sequence?
**A.** 48.5 nM

**Q.** For “UAUUAGCAAGUGAGAUCCCACAUGAGGAUCACCCAUGUGCUCGUCUUAUAAGGUACUGUGACGAAAGUCACGGUACC [Sensor 3, v1 - 91 v1] (Eterna round: R97, puzzle: Sensor, turn-off variant 1)”, which “apparent KD of MS2 coat protein” value (input ligand: FMN 200 uM) is on record?
**A.** 56.2 nM

**Q.** What about the “apparent KD of MS2 coat protein” value (input ligand: none) of the same sequence?
**A.** 47.6 nM

**Q.** Which results are given for “CAGUACUGAGGAUAUACAUGAGGAUCACCCAUGUGUUCCAGGUAGGAAACUAGCAAAAGUAGAAGGCAGUACUG [salish99_ex3_r3_078] (puzzle: Exclusion 3)”?
**A.** apparent KD of MS2 coat protein (Eterna round: R95, input ligand: FMN 200 uM): 99.7 nM; apparent KD of MS2 coat protein [1]: 20.2 nM; apparent KD of MS2 coat protein (Eterna round: R95, input ligand: none): 20.4 nM

**Q.** With “CAACAACGAGGAUAUACAUGAGGAUCACCCAUGUAAGAAAAGACAUAAACCGCCUGGUGUAGAAGGCGUAAAAC [Xeonesar] (Eterna round: R97, puzzle: Exclusion 3)” as the sequence, how does the “apparent KD of MS2 coat protein” value (input ligand: FMN 200 uM) read?
**A.** 25.2 nM

**Q.** What about the “apparent KD of MS2 coat protein” value (input ligand: none) of the same sequence?
**A.** 38.2 nM

**Q.** “AUAAGGGCAGGAUAUGCAGAAAAGAUUGGCGUGGUCCUGACACAUGAGGAUCACCCAUGUAGAAGGGCCUAGCC [Maquzaar] (Eterna round: R97, puzzle: Exclusion 2)” was tested. Which “apparent KD of MS2 coat protein” value (input ligand: FMN 200 uM) did it give?
**A.** 13.5 nM

**Q.** And the “apparent KD of MS2 coat protein” value (input ligand: none)?
**A.** 14.8 nM

**Q.** For “CCUCUGGUAGGAUAUACUGGUGGCGGCAUUAUCGUGAAGGUACAUGAGGAUCACCCAUGUAGAAGGGCUCAAGU [Eternabot (L2) Solution 83] (Eterna round: R97, puzzle: Exclusion 2)”, which “apparent KD of MS2 coat protein” value (input ligand: FMN 200 uM) is on record?
**A.** 38.3 nM

**Q.** And the “apparent KD of MS2 coat protein” value (input ligand: none)?
**A.** 37.1 nM

**Q.** How did the “apparent KD of MS2 coat protein” value (input ligand: FMN 200 uM) turn out when “AUCAGCUCGUCAGGAUAUAUAUACAUGAGGAUCACCCAUGUAAGAUCAGGCUUCGGCCAAUGUAUAUAGAAGGGACGAGCUGAU [ENG2/11-B3] (Eterna round: R96, puzzle: Exclusion NG 2)” was run?
**A.** 1550 nM

**Q.** And the “apparent KD of MS2 coat protein” value [2]?
**A.** 371 nM

**Q.** What about the “apparent KD of MS2 coat protein” value (input ligand: none) of the same sequence?
**A.** 771 nM

**Q.** How did the “apparent KD of MS2 coat protein” value (input ligand: FMN 200 uM) turn out when “UGAUCAGACCGAGGAUAUACAUGGAGGACCCACGUGAGUGGGUCCACUACAUGAGGAUCACCCAUGUAGAAGGCGGUCUGAUCU [JL ENG2 1.91] (Eterna round: R96, puzzle: Exclusion NG 2)” was run?
**A.** 1880 nM

**Q.** And the “apparent KD of MS2 coat protein” value [2]?
**A.** 91.3 nM

**Q.** What about the “apparent KD of MS2 coat protein” value (input ligand: none) of the same sequence?
**A.** 128 nM

**Q.** With “CCUAGACAUGAGGAUCACCCAUGUGAGGAUAUGAUGCGAUCGUCGAAAGACGAUAGCAUCAGAAGGCACAUAUG [Fiskers Ex 1 - 5] (puzzle: Exclusion 1)” as the sequence, how does the “apparent KD of MS2 coat protein” value [1] read?
**A.** 36.9 nM
